“Also recorded” adds a separate entry of the source.
Experiments:
[1] = Heavy-metal-binding assay using metal-chelate affinity chromatography, Pb(II)-equilibrated matrix; details: for binding of in vitro translated ACBP to Pb(II): [35S]methionine-labeled protein, SDS-PAGE autoradiography, FIG. 2B
From the text: (§1) The coding regions of ACBP1, ACBP2 and ACBP6 were generated by RT-PCR for construction of pGEM-T EASY (Promega) derivatives for in vitro transcription/translation. Primers used in RT-PCR were as follows: ACBP1 (ML190 (SEQ ID NO:20) and ML917 (SEQ ID NO:17), ACBP2 (ML902 (SEQ ID NO:21) and ML903 (SEQ ID NO:22)), and ACBP6 (ML812 (SEQ ID NO:23) and ML751 (SEQ ID NO:2)). The PCR products were subsequently cloned into pGEM-T EASY vector (Promega) for in vitro transcription/translation using the TNT® T7/SP6 Coupled Wheat Germ Extract System (Promega) following the manufacturer's instruction. Pb(II)-, Cd(II)-, and Cu(II)-equilibrated matrices for metal-binding assays were prepared by stripping Ni-NTA agarose (Qiagen) of nickel and re-equilibrating with 0.1 M Pb(NO3)2 (Aldrich), CdCl2 (Aldrich), or CuCl2 (Aldrich). Twenty μl of Pb(II)-, Cd(II)-, or Cu(II)-equilibrated matrix, 545 μl of 50 mM KH2PO4, 300 mM NaCl, pH 7.4, and [^35S]methionine-labeled protein were added to a microfuge tube (Dykema et al., Plant Mol. Biol. 41: 139-150, 1999) and rotated on a wheel at 4° C. for 1 h. Subsequently, the matrix was washed 3 times with 1.0 ml of 50 mM KH2PO4, 300 mM NaCl, pH 7.5. The binding protein was eluted with 200 μl of 50 mM KH2PO4, 300 mM NaCl, 500 mM imidazole, pH 4.5, followed by extraction with 200 μl of 2% SDS, 50 mM DTT, heating at 85° C. for 3 min and analysis by SDS-PAGE followed by autoradiography.

[2] = Heavy-metal-binding assay using metal-chelate affinity chromatography, Cd(II)-equilibrated matrix; details: FIG. 2C
From the text: as §1, with “The binding protein was eluted with 200 μl of 50 mM KH2PO4, 300 mM NaCl, 500 mM imidazole, pH 4.5, followed by extraction with 200 μl of 2% SDS, 50 mM DTT, heating at 85° C. for 3 min and analysis by SDS-PAGE followed by autoradiography.” left out

[3] = Heavy-metal-binding assay using metal-chelate affinity chromatography, Cu(II)-equilibrated matrix; details: FIG. 2C
From the text: as §1, with “The binding protein was eluted with 200 μl of 50 mM KH2PO4, 300 mM NaCl, 500 mM imidazole, pH 4.5, followed by extraction with 200 μl of 2% SDS, 50 mM DTT, heating at 85° C. for 3 min and analysis by SDS-PAGE followed by autoradiography.” left out

ACBP1 to ACBP5 mRNA = test: RT-PCR of ACBP transcripts in root after Pb(II) treatment; format: in vivo, Arabidopsis thaliana; details: 1 mM Pb(NO3)2, 24 h, 3-week-old Col-0 seedlings, FIG. 1
Method: (§2) Arabidopsis thaliana wild-type Columbia (ecotype Col-0), ACBP1- and ACBP3-overexpressing transgenic plants (ecotype Col-0) were grown under 8 h dark at 21° C. and 16 h light at 23° C. cycles. For Pb(II)-inducible gene expression analysis, Arabidopsis seedlings were grown for 3 weeks in continuous light, treated with 1 mM Pb(NO3)2 or water (as control), and shoot and root samples were collected at 24 h post-treatment. For Pb(II) sensitivity tests, Arabidopsis seedlings were surface-sterilized and grown on Murashige and Skoog (Physiol. Plant. 15: 473-497, 1962) medium containing 2% sucrose with or without 0.75 mM Pb(NO3)2 (Sigma-Aldrich, St. Louis) for 2 to 3 weeks.
(§3) To determine if the regulation of Arabidopsis ACBP mRNAs responds to Pb(II) stress, we performed reverse transcription-PCR(RT-PCR) using root tissue RNA following treatment with 1 mM Pb(NO3)2. For RT-PCR, total RNA was extracted with TRIzol (Invitrogen) reagent, according to the manufacturer's protocol, from roots of 3-week-old wild-type Arabidopsis (Col-0) seedlings in the presence or absence (water as control) of 1 mM Pb(NO3)2. RT-PCR analysis was performed as according to the manufacturer (Invitrogen Cat No. 12371-019). Specific primers were designed based on mRNA sequences. […]

ACBP6 transcript = test: as above; format: in vivo, Arabidopsis thaliana; details: 1 mM Pb(NO3)2, 24 h, 3-week-old Col-0 seedlings, FIG. 1
Method: as §2, §3

[4] = Lead-binding assay, fluorescence of dansylated (His)6-ACBP; details: 1 to 9 μM Pb(II), FIG. 2A
Method: Lead-binding assays and fluorescence measurements were carried out according to Funaba and Mathews (Mol. Endocrinol. 14:1583-1591, 2000) with minor modifications. Briefly, 3.2 μM of each purified (His)6-ACBP protein which was equilibrated in 20 mM phosphate buffer (pH 7.2) with 200 mM NaCl, were labeled with 8 μl of 200 mM dansyl aziridine (Molecular Probes, Cat. No. D151) and reacted for 2 h in a 1.5 ml Eppendorf tube at room temperature. The dansylated (His)6-ACBP proteins were then distributed to 8 wells of a 96-well microtiter plate (Nunc Cat. No. 236105). Various concentrations (0, 1.0, 2.0, 3.0, 4.0, 5.0, 7.0 and 9.0 μM) of Pb(NO3)2 (Aldrich, Cat. No. 203580) solutions were added and the reactions were incubated at room temperature for 1 h.
Fluorescence measurements were performed using a BIO-TEK FL600 Fluorescence Plate Reader (BIO-TEK Instrument, INC, USA) with excitation wavelength set at 360/40 nm and emission wavelength set at 530/25 nm. Prior to binding with lead, the dansyl aziridine coupled (His)6-ACBP recombinant proteins are sensitive to the conformational changes. After binding to Pb(II) molecules, the dansylated (His)6-ACBP recombinant proteins would change their conformations and the dye will show an increase in fluorescence excitation. […] Each experiment was repeated three times to ascertain results.

[5] = EDTA at 50 mM final concentration
[6] = [35S]methionine-labeled protein

In the case of `O=C(O)CN(CCN(CC(=O)O)CC(=O)O)CC(=O)O` [EDTA, ethylenediaminetetraacetic acid, reference compound], the “effect on binding of ACBP2 to Pb(II)” value ([1]; EDTA at 50 mM final concentration, FIG. 2C) is reported as “inhibited”, the “effect on binding of ACBP2 to Cd(II)” value [2, 5] is reported as “inhibited” and the “effect on binding of ACBP2 to Cu(II)” value [3, 5] is reported as “inhibited”.

In the case of `O=[N+]([O-])[O-].O=[N+]([O-])[O-].[Pb+2]` [Pb(II)], the “mRNA expressions of ACBP1 to ACBP5 in roots” value (ACBP1 to ACBP5 mRNA) is reported as “increase” and the “transcript of ACBP6 in roots” value (ACBP6 transcript) is reported as “little change”.

B1: (His)6-ACBP6: recombinant (His)6-ACBP6, 18.9 kDa inclusive of His-tag, from vector pAT335 in E. coli (protein, UniProt P57752 1-92, looked up)
Acyl-CoA-binding …: MGLKEEFEEHAEKVNTLTELPSNEDLLILYGLYKQAKFGPVDTSRPGMFSMKERAKWDAWKAVEGKSSEEAMNDYITKVKQLLEVAASKAST
modifications: His6 tag
notes: recombinant (His)6-ACBP6, 18.9 kDa inclusive of His-tag, from vector pAT335 in E. coli
With B1 the “relative fluorescence intensity in the presence of Pb(II), indicative of binding to Pb(II)” value [4] was “bind Pb(II) less well than ACBP1”.

B2: ACBP6: in vitro translated [35S]methionine-labeled Arabidopsis ACBP6 (SEQ ID NO: 26), 10-kDa ACBP (protein)
chain: MGLKEEFEEHAEKVNTLTELPSNEDLLILYGLYKQAKFGPVDTSRPGMFSMKERAKWDAWKAVEGKSSEEAMNDYITKVKQLLEVAASKAST
modifications: Arabidopsis
For B2, the “binding of in vitro translated ACBP to Pb(II)” value [1] was “bind Pb(II) less well than ACBP1”.

B3: (His)6-ACBP4: recombinant (His)6-ACBP4 from pRSET B-derived vector pAT184 in E. coli (protein, UniProt Q9MA55 1-668, looked up)
Acyl-CoA-binding …: MAMPRATSGPAYPERFYAAASYVGLDGSDSSAKNVISKFPDDTALLLYALYQQATVGPCNTPKPSAWRPVEQSKWKSWQGLGTMPSIEAMRLFVKILEEDDPGWYSRASNDIPDPVVDVQINRAKDEPVVENGSTFSETKTISTENGRLAETQDKDVVSEDSNTVSVYNQWTAPQTSGQRPKARYEHGAAVIQDKMYIYGGNHNGRYLGDLHVLDLKSWTWSRVETKVATESQETSTPTLLAPCAGHSLIAWDNKLLSIGGHTKDPSESMQVKVFDPHTITWSMLKTYGKPPVSRGGQSVTMVGKTLVIFGGQDAKRSLLNDLHILDLDTMTWDEIDAVGVSPSPRSDHAAAVHAERFLLIFGGGSHATCFDDLHVLDLQTMEWSRPAQQGDAPTPRAGHAGVTIGENWFIVGGGDNKSGASESVVLNMSTLAWSVVASVQGRVPLASEGLSLVVSSYNGEDVLVAFGGYNGRYNNEINLLKPSHKSTLQTKTLEAPLPGSLSAVNNATTRDIESEVEVSQEGRVREIVMDNVNPGSKVEGNSERIIATIKSEKEELEASLNKERMQTLQLRQELGEAELRNTDLYKELQSVRGQLAAEQSRCFKLEVDVAELRQKLQTLETLQKELELLQRQKAASEQAAMNAKRQGSGGVWGWLAGSPQEKDDDSP
modifications: His6 tag
notes: recombinant (His)6-ACBP4 from pRSET B-derived vector pAT184 in E. coli
With B3 the “relative fluorescence intensity in the presence of Pb(II), indicative of binding to Pb(II)” value [4] was “much higher than the other recombinant ACBPs”.

B4: ACBP1: in vitro translated [35S]methionine-labeled Arabidopsis ACBP1 (SEQ ID NO: 27), wheat germ extract system (protein)
chain: MADWYQLAQSIIFGLIFAYLLAKLISILLAFKDENLSLTRNHTTQSEYENLRKVETLIGISGETDSLIAEQGSLRGDEDESDDDDWEGVESTELDEAFSAATAFVAAAASDRLSQKVSNELQLQLYGLYKIATEGPCTAPQPSALKMTARAKWQAWQKLGAMPPEEAMEKYIDLVTQLYPAWVEGGSKRRNRSGEAAGPMGPVFSSLVYEEESDNELKIDAIHAFAREGEVENLLKCIENGIPVNARDSEGRTPLHWAIDRGHLNVAEALVDKNADVNAKDNEGQTSLHYAVVCEREALAEFLVKQKADTTIKDEDGNSPLDLCESEWSWMREKKDSN
modifications: Arabidopsis
With B4 the “binding of in vitro translated ACBP to Pb(II)” value [1] was “bind Pb(II) better than ACBP6; also recorded: slightly better binding than ACBP2”.

B5: ACBP2 (protein)
chain: MGDWAQLAQSVILGLIFSYLLAKLISIVVTFKEDNLSLTRHPEESQLEIKPEGVDSRRLDSSCGGFGGEADSLVAEQGSSRSDSVAGDDSEEDDDWEGVESTELDEAFSAATLFVTTAAADRLSQKVPSDVQQQLYGLYKIATEGPCTAPQPSALKMTARAKWQAWQKLGAMPPEEAMEKYIEIVTQLYPTWLDGGVKAGSRGGDDAASNSRGTMGPVFSSLVYDEESENELKIDAIHGFAREGEVENLLKSIESGIPVNARDSEGRTPLHWAIDRGHLNIAKVLVDKNADVNAKDNEGQTPLHYAVVCDREAIAEFLVKQNANTAAKDEDGNSPLDLCESDWPWIRDSAKQAD
modifications: Arabidopsis
With B5 the “binding of in vitro translated ACBP to Pb(II)” value [1] was “bind Pb(II) better than ACBP6”, the “binding of in vitro translated ACBP to Cd(II)” value [2, 6] was “binds Cd(II) and Cu(II) better than ACBP6” and the “binding of in vitro translated ACBP to Cu(II)” value [3, 6] was “binds Cd(II) and Cu(II) better than ACBP6”.
